{"source": "the RNAGym collection of RNA variant scans (doi:10.1021/acssynbio.7b00057)", "parents": {"B1": {"name": "Pistol ribozyme (parent)", "chain": "GGGUCGUUGUUCCAUAAUCGCGUGGAUAUGGCACGCAAGUUUCUACCGGGCACCGUAAAUGUCCGACUGGAGCCGUUCGGGCGGCUAUAAACAGACCUCAGGCCCGAAGCGUGGCGGCACCUGCCGCCGGUGGUAAAAAAGAUCGGAAGAGCACACGUCU"}}}
{"variants_of": "B1", "assay": "aptazyme ON/OFF ratio, guanine; higher = stronger switching; co-transcriptional cleavage with and without guanine"}
{"variant": "GGGUCGUUUCAGAAUAAUCGCGUGGAUAUGGCACGCAAGUUUCUACCGGGCACCGUAAAUGUCCGACUGGAGCCGUUCGGGCGGCUAUAAACAGACCUCAGGCCCGAAGCGUGGCGGCACCUGCCGCCGGUGGUAAAAAAGAUCGGAAGAGCACACGUCU", "aptazyme ON/OFF ratio": 1.48}
{"variant": "GGGUCGUUUCAGUAUAAUCGCGUGGAUAUGGCACGCAAGUUUCUACCGGGCACCGUAAAUGUCCGACUGGAGCCGUUCGGGCGGCUAUAAACAGACCUCAGGCCCGAAGCGUGGCGGCACCUGCCGCCGGUGGUAAAAAAGAUCGGAAGAGCACACGUCU", "aptazyme ON/OFF ratio": 1.27}
{"variant": "GGGUCGUUUCAGGAUAAUCGCGUGGAUAUGGCACGCAAGUUUCUACCGGGCACCGUAAAUGUCCGACUGGAGCCGUUCGGGCGGCUAUAAACAGACCUCAGGCCCGAAGCGUGGCGGCACCUGCCGCCGGUGGUAAAAAAGAUCGGAAGAGCACACGUCU", "aptazyme ON/OFF ratio": 1.43}
{"variant": "GGGUCGUUUCUUUAUAAUCGCGUGGAUAUGGCACGCAAGUUUCUACCGGGCACCGUAAAUGUCCGACUGGAGCCGUUCGGGCGGCUAUAAACAGACCUCAGGCCCGAAGCGUGGCGGCACCUGCCGCCGGUGGUAAAAAAGAUCGGAAGAGCACACGUCU", "aptazyme ON/OFF ratio": 1.63}
{"variant": "GGGUCGUUUCUUAAUAAUCGCGUGGAUAUGGCACGCAAGUUUCUACCGGGCACCGUAAAUGUCCGACUGGAGCCGUUCGGGCGGCUAUAAACAGACCUCAGGCCCGAAGCGUGGCGGCACCUGCCGCCGGUGGUAAAAAAGAUCGGAAGAGCACACGUCU", "aptazyme ON/OFF ratio": 1.69}
{"variant": "GGGUCGUUUCUUGAUAAUCGCGUGGAUAUGGCACGCAAGUUUCUACCGGGCACCGUAAAUGUCCGACUGGAGCCGUUCGGGCGGCUAUAAACAGACCUCAGGCCCGAAGCGUGGCGGCACCUGCCGCCGGUGGUAAAAAAGAUCGGAAGAGCACACGUCU", "aptazyme ON/OFF ratio": 1.34}
{"variant": "GGGUCGUUUCACAAUAAUCGCGUGGAUAUGGCACGCAAGUUUCUACCGGGCACCGUAAAUGUCCGACUGGAGCCGUUCGGGCGGCUAUAAACAGACCUCAGGCCCGAAGCGUGGCGGCACCUGCCGCCGGUGGUAAAAAAGAUCGGAAGAGCACACGUCU", "aptazyme ON/OFF ratio": 1.31}
{"variant": "GGGUCGUUUCACUAUAAUCGCGUGGAUAUGGCACGCAAGUUUCUACCGGGCACCGUAAAUGUCCGACUGGAGCCGUUCGGGCGGCUAUAAACAGACCUCAGGCCCGAAGCGUGGCGGCACCUGCCGCCGGUGGUAAAAAAGAUCGGAAGAGCACACGUCU", "aptazyme ON/OFF ratio": 1.48}
{"variant": "GGGUCGUUUCACGAUAAUCGCGUGGAUAUGGCACGCAAGUUUCUACCGGGCACCGUAAAUGUCCGACUGGAGCCGUUCGGGCGGCUAUAAACAGACCUCAGGCCCGAAGCGUGGCGGCACCUGCCGCCGGUGGUAAAAAAGAUCGGAAGAGCACACGUCU", "aptazyme ON/OFF ratio": 1.09}
{"variant": "GGGUCGUUUAGCUAUAAUCGCGUGGAUAUGGCACGCAAGUUUCUACCGGGCACCGUAAAUGUCCGACUGGAGCCGUUCGGGCGGCUAUAAACAGACCUCAGGCCCGAAGCGUGGCGGCACCUGCCGCCGGUGGUAAAAAAGAUCGGAAGAGCACACGUCU", "aptazyme ON/OFF ratio": 1.72}
{"variant": "GGGUCGUUUCUCCAUAAUCGCGUGGAUAUGGCACGCAAGUUUCUACCGGGCACCGUAAAUGUCCGACUGGAGCCGUUCGGGCGGCUAUAAACAGACCUCAGGCCCGAAGCGUGGCGGCACCUGCCGCCGGUGGUAAAAAAGAUCGGAAGAGCACACGUCU", "aptazyme ON/OFF ratio": 4.48}
{"variant": "GGGUCGUUUCAUUAUAAUCGCGUGGAUAUGGCACGCAAGUUUCUACCGGGCACCGUAAAUGUCCGACUGGAGCCGUUCGGGCGGCUAUAAACAGACCUCAGGCCCGAAGCGUGGCGGCACCUGCCGCCGGUGGUAAAAAAGAUCGGAAGAGCACACGUCU", "aptazyme ON/OFF ratio": 1.54}
{"variant": "GGGUCGUUUCAUGAUAAUCGCGUGGAUAUGGCACGCAAGUUUCUACCGGGCACCGUAAAUGUCCGACUGGAGCCGUUCGGGCGGCUAUAAACAGACCUCAGGCCCGAAGCGUGGCGGCACCUGCCGCCGGUGGUAAAAAAGAUCGGAAGAGCACACGUCU", "aptazyme ON/OFF ratio": 1.35}
{"variant": "GGGUCGUUUCAUAAUAAUCGCGUGGAUAUGGCACGCAAGUUUCUACCGGGCACCGUAAAUGUCCGACUGGAGCCGUUCGGGCGGCUAUAAACAGACCUCAGGCCCGAAGCGUGGCGGCACCUGCCGCCGGUGGUAAAAAAGAUCGGAAGAGCACACGUCU", "aptazyme ON/OFF ratio": 1.49}
{"variant": "GGGUCGUUUCCACAUAAUCGCGUGGAUAUGGCACGCAAGUUUCUACCGGGCACCGUAAAUGUCCGACUGGAGCCGUUCGGGCGGCUAUAAACAGACCUCAGGCCCGAAGCGUGGCGGCACCUGCCGCCGGUGGUAAAAAAGAUCGGAAGAGCACACGUCU", "aptazyme ON/OFF ratio": 1.08}
{"variant": "GGGUCGUUUCUGCAUAAUCGCGUGGAUAUGGCACGCAAGUUUCUACCGGGCACCGUAAAUGUCCGACUGGAGCCGUUCGGGCGGCUAUAAACAGACCUCAGGCCCGAAGCGUGGCGGCACCUGCCGCCGGUGGUAAAAAAGAUCGGAAGAGCACACGUCU", "aptazyme ON/OFF ratio": 2.12}
{"variant": "GGGUCGUUUCUACAUAAUCGCGUGGAUAUGGCACGCAAGUUUCUACCGGGCACCGUAAAUGUCCGACUGGAGCCGUUCGGGCGGCUAUAAACAGACCUCAGGCCCGAAGCGUGGCGGCACCUGCCGCCGGUGGUAAAAAAGAUCGGAAGAGCACACGUCU", "aptazyme ON/OFF ratio": 1.77}
{"variant": "GGGUCGUUUCUUCAUAAUCGCGUGGAUAUGGCACGCAAGUUUCUACCGGGCACCGUAAAUGUCCGACUGGAGCCGUUCGGGCGGCUAUAAACAGACCUCAGGCCCGAAGCGUGGCGGCACCUGCCGCCGGUGGUAAAAAAGAUCGGAAGAGCACACGUCU", "aptazyme ON/OFF ratio": 1.71}
{"variant": "GGGUCGUUUCAUCAUAAUCGCGUGGAUAUGGCACGCAAGUUUCUACCGGGCACCGUAAAUGUCCGACUGGAGCCGUUCGGGCGGCUAUAAACAGACCUCAGGCCCGAAGCGUGGCGGCACCUGCCGCCGGUGGUAAAAAAGAUCGGAAGAGCACACGUCU", "aptazyme ON/OFF ratio": 1.89}
{"variant": "GGGUCGUUUCAACAUAAUCGCGUGGAUAUGGCACGCAAGUUUCUACCGGGCACCGUAAAUGUCCGACUGGAGCCGUUCGGGCGGCUAUAAACAGACCUCAGGCCCGAAGCGUGGCGGCACCUGCCGCCGGUGGUAAAAAAGAUCGGAAGAGCACACGUCU", "aptazyme ON/OFF ratio": 1.47}
{"variant": "GGGUCGUUUCAGCAUAAUCGCGUGGAUAUGGCACGCAAGUUUCUACCGGGCACCGUAAAUGUCCGACUGGAGCCGUUCGGGCGGCUAUAAACAGACCUCAGGCCCGAAGCGUGGCGGCACCUGCCGCCGGUGGUAAAAAAGAUCGGAAGAGCACACGUCU", "aptazyme ON/OFF ratio": 1.76}
{"variant": "GGGUCGUUUCUAAAUAAUCGCGUGGAUAUGGCACGCAAGUUUCUACCGGGCACCGUAAAUGUCCGACUGGAGCCGUUCGGGCGGCUAUAAACAGACCUCAGGCCCGAAGCGUGGCGGCACCUGCCGCCGGUGGUAAAAAAGAUCGGAAGAGCACACGUCU", "aptazyme ON/OFF ratio": 1.39}
{"variant": "GGGUCGUUUCUAUAUAAUCGCGUGGAUAUGGCACGCAAGUUUCUACCGGGCACCGUAAAUGUCCGACUGGAGCCGUUCGGGCGGCUAUAAACAGACCUCAGGCCCGAAGCGUGGCGGCACCUGCCGCCGGUGGUAAAAAAGAUCGGAAGAGCACACGUCU", "aptazyme ON/OFF ratio": 1.38}
{"variant": "GGGUCGUUUCUAGAUAAUCGCGUGGAUAUGGCACGCAAGUUUCUACCGGGCACCGUAAAUGUCCGACUGGAGCCGUUCGGGCGGCUAUAAACAGACCUCAGGCCCGAAGCGUGGCGGCACCUGCCGCCGGUGGUAAAAAAGAUCGGAAGAGCACACGUCU", "aptazyme ON/OFF ratio": 1.61}
{"variant": "GGGUCGUUUCAAAAUAAUCGCGUGGAUAUGGCACGCAAGUUUCUACCGGGCACCGUAAAUGUCCGACUGGAGCCGUUCGGGCGGCUAUAAACAGACCUCAGGCCCGAAGCGUGGCGGCACCUGCCGCCGGUGGUAAAAAAGAUCGGAAGAGCACACGUCU", "aptazyme ON/OFF ratio": 1.53}
{"variant": "GGGUCGUUUCAAGAUAAUCGCGUGGAUAUGGCACGCAAGUUUCUACCGGGCACCGUAAAUGUCCGACUGGAGCCGUUCGGGCGGCUAUAAACAGACCUCAGGCCCGAAGCGUGGCGGCACCUGCCGCCGGUGGUAAAAAAGAUCGGAAGAGCACACGUCU", "aptazyme ON/OFF ratio": 1.24}
{"variant": "GGGUCGUUUCAAUAUAAUCGCGUGGAUAUGGCACGCAAGUUUCUACCGGGCACCGUAAAUGUCCGACUGGAGCCGUUCGGGCGGCUAUAAACAGACCUCAGGCCCGAAGCGUGGCGGCACCUGCCGCCGGUGGUAAAAAAGAUCGGAAGAGCACACGUCU", "aptazyme ON/OFF ratio": 1.57}
{"variant": "GGGUCGUUUCACCAUAAUCGCGUGGAUAUGGCACGCAAGUUUCUACCGGGCACCGUAAAUGUCCGACUGGAGCCGUUCGGGCGGCUAUAAACAGACCUCAGGCCCGAAGCGUGGCGGCACCUGCCGCCGGUGGUAAAAAAGAUCGGAAGAGCACACGUCU", "aptazyme ON/OFF ratio": 3.16}
{"variant": "GGGUCGUUUCCCCAUAAUCGCGUGGAUAUGGCACGCAAGUUUCUACCGGGCACCGUAAAUGUCCGACUGGAGCCGUUCGGGCGGCUAUAAACAGACCUCAGGCCCGAAGCGUGGCGGCACCUGCCGCCGGUGGUAAAAAAGAUCGGAAGAGCACACGUCU", "aptazyme ON/OFF ratio": 1.63}
{"variant": "GGGUCGUUUCUCAAUAAUCGCGUGGAUAUGGCACGCAAGUUUCUACCGGGCACCGUAAAUGUCCGACUGGAGCCGUUCGGGCGGCUAUAAACAGACCUCAGGCCCGAAGCGUGGCGGCACCUGCCGCCGGUGGUAAAAAAGAUCGGAAGAGCACACGUCU", "aptazyme ON/OFF ratio": 1.22}
{"variant": "GGGUCGUUUCUCUAUAAUCGCGUGGAUAUGGCACGCAAGUUUCUACCGGGCACCGUAAAUGUCCGACUGGAGCCGUUCGGGCGGCUAUAAACAGACCUCAGGCCCGAAGCGUGGCGGCACCUGCCGCCGGUGGUAAAAAAGAUCGGAAGAGCACACGUCU", "aptazyme ON/OFF ratio": 1.72}
{"variant": "GGGUCGUUUCUCGAUAAUCGCGUGGAUAUGGCACGCAAGUUUCUACCGGGCACCGUAAAUGUCCGACUGGAGCCGUUCGGGCGGCUAUAAACAGACCUCAGGCCCGAAGCGUGGCGGCACCUGCCGCCGGUGGUAAAAAAGAUCGGAAGAGCACACGUCU", "aptazyme ON/OFF ratio": 1.13}
{"variant": "GGGUCGUUUCCAAAUAAUCGCGUGGAUAUGGCACGCAAGUUUCUACCGGGCACCGUAAAUGUCCGACUGGAGCCGUUCGGGCGGCUAUAAACAGACCUCAGGCCCGAAGCGUGGCGGCACCUGCCGCCGGUGGUAAAAAAGAUCGGAAGAGCACACGUCU", "aptazyme ON/OFF ratio": 1.15}
{"variant": "GGGUCGUUUCUGGAUAAUCGCGUGGAUAUGGCACGCAAGUUUCUACCGGGCACCGUAAAUGUCCGACUGGAGCCGUUCGGGCGGCUAUAAACAGACCUCAGGCCCGAAGCGUGGCGGCACCUGCCGCCGGUGGUAAAAAAGAUCGGAAGAGCACACGUCU", "aptazyme ON/OFF ratio": 1.32}
{"variant": "GGGUCGUUUCUGAAUAAUCGCGUGGAUAUGGCACGCAAGUUUCUACCGGGCACCGUAAAUGUCCGACUGGAGCCGUUCGGGCGGCUAUAAACAGACCUCAGGCCCGAAGCGUGGCGGCACCUGCCGCCGGUGGUAAAAAAGAUCGGAAGAGCACACGUCU", "aptazyme ON/OFF ratio": 1.35}
{"variant": "GGGUCGUUUCUGUAUAAUCGCGUGGAUAUGGCACGCAAGUUUCUACCGGGCACCGUAAAUGUCCGACUGGAGCCGUUCGGGCGGCUAUAAACAGACCUCAGGCCCGAAGCGUGGCGGCACCUGCCGCCGGUGGUAAAAAAGAUCGGAAGAGCACACGUCU", "aptazyme ON/OFF ratio": 1.18}
